According to patent US20240288440A1 (MACFARLANE BURNET INSTITUTE FOR MEDICAL RESEARCH AND PUBLIC …, published 2024):

B1: CB6-IgA2 (monomeric chimeric IgA2 of monoclonal antibody CB6) (antibody)
heavy: ASEVQLVESGGGLVQPGGSLRLSCAASGFTVSSNYMSWVRQAPGKGLEWVSVIYSGGSTFYADSVKGRFTISRDNSMNTLFLQMNSLRAEDTAVYYCARVLPMYGDYLDYWGQGTLVTVSSASTKGPSVFPLAPSSKSTSGASPTSPKVFPLSLDSTPQDGNVVVACLVQGFFPQEPLSVTWSESGQNVTARNFPPSQDASGDLYTTSSQLTLPATQCPDGKSVTCHVKHYTNPSQDVTVPCPVPPPPPCCHPRLSLHRPALEDLLLGSEANLTCTLTGLRDASGATFTWTPSSGKSAVQGPPERDLCGCYSVSSVLPGCAQPWNHGETFTCTAAHPELKTPLTANITKSGNTFRPEVHLLPPPSEELALNELVTLTCLARGFSPKDVLVRWLQGSQELPREKYLTWASRQEPSQGTTTFAVTSILRVAAEDWKKGDTFSCMVGHEALPLAFTQKTIDRLAGKPTHVNVSVVMAEVDGTCY
light: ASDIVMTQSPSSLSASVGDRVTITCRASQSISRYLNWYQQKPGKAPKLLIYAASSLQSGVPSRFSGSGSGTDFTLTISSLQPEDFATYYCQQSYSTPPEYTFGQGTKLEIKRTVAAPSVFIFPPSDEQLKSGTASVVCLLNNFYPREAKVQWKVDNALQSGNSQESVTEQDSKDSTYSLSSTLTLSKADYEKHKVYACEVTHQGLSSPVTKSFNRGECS
notes: also called monomeric CB6-IgA2
B2: chimeric secretory component (CSC) of the polymeric immunoglobulin receptor (receptor)
chain: QSSLLGPSSIFGPGEVNVLEGDSVSITCYYPTTSVTRHSRKFWCREEESGRCVTLASTGYTSQEYSGRGKLTDFPDKGEFVVTVDQLTQNDSGSYKCGVGVNGRGLDFGVNVLVSQKPELLNDTKVYTVDLGRTVTINCPFKTENAQKRKSLYKQIGLYPVLVIDSSGYVNPNYTGRIRLDIQGTGQLLFSVVINQLRLSDAGQYLCQAGDDSNSNKKNADLQVLKPEPELVYEDLRGSVTFHCALGPEVANVAKFLCRQSSGENCDVVVNTLGKRAPAFEGRILLNPQDKDGSFSVVITGLRKEDAGRYLCGAHSDGQLQEGSPIQAWQLFVNEESTIPRSPTVVKGVAGGSVAVLCPYNRKESKSIKYWCLWEGAQNGRCPLLVDSEGWVKAQYEGRLSLLEEPGNGTFTVILNQLTSRDAGFYWCLTNGDTLWRTTVEIKIIEGEPNLKVPGNVTAVLGETLKVPCHFPCKFSSYEKYWCKWNNTGCQALPSQDEGPSKAFVNCDENSRLVSLTLNLVTRADEGWYWCGVKQGHFYGETAAVYVAVEERKAAGSRDVSLAKADAAPDEKVLDSGFREIENKAIQDPRLFAEEKAVADTRDQADGSRASVDSGSSEEQGGSSRR
notes: also called R/HpIgR; chimeric pIgR; not shown: C-terminal 6 histidine tag

How the values were obtained:
[1] = target: B2; experiment: lateral flow assay, CSC test line, detection with RBD-biotin/streptavidin gold
[2] = target: purified IgG; experiment: pull-down on CSC beads, reducing SDS-PAGE, bands quantitated
[3] = target: T1, purified IgM; experiment: as above
T1 construct: also called pentameric IgM

Binder	binding result [1]	percent bound [2] [%]	percent bound [3] [%]
B1	no binding (tested: 100 µg/ml)	–	–
B2	–	~20	~20
